Measurements reported in patent US20220175921A1 (published 2022).

Tests used:
[1] = biological target: T1, human GITR, membrane bound (on activated human T cells or on 3A9-hGITR cells) (UniProt Q9Y5U5 26-241); assay: FACS
T1 chain: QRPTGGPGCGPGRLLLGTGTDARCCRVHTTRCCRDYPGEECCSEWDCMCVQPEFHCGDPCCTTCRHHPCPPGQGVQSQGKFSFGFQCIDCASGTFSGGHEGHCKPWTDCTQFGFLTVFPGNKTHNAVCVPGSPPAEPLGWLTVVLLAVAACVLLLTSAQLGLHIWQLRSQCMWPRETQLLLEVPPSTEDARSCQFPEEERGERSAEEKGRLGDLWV

[2] = biological target: T2, cynomolgus GITR, membrane bound (on activated cynomolgus T cells); assay: FACS
T2 chain: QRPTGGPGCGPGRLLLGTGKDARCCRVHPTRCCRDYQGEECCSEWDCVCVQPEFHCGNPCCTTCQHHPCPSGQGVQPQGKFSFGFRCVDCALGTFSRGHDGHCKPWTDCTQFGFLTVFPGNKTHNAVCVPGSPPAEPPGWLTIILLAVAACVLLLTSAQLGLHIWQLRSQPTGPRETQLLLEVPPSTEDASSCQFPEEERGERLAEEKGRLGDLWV

B1: anti-GITR.g2 (antibody)
chain 1: QVQLVESGGGVVQPGRSLRLSCAASGFTFSSYGMHWVRQAPGKGLEWVAVIWYEGSNKYYADSVKGRFTISRDNSKNTLYLQMNSLRAEDTAVYYCARGGSMVRGDYYYGMDVWGQGTTVTVSSASTKGPSVFPLAPCSRSTSESTAALGCLVKDYFPEPVTVSWNSGALTSGVHTFPAVLQSSGLYSLSSVVTVPSSNFGTQTYTCNVDHKPSNTKVDKTVERKCCVECPPCPAPPVAGPSVFLFPPKPKDTLMISRTPEVTCVVVDVSHEDPEVQFNWYVDGVEVHNAKTKPREEQFNSTFRVVSVLTVVHQDWLNGKEYKCKVSNKGLPAPIEKTISKTKGQPREPQVYTLPPSREEMTKNQVSLTCLVKGFYPSDIAVEWESNGQPENNYKTTPPMLDSDGSFFLYSKLTVDKSRWQQGNVFSCSVMHEALHNHYTQKSLSLSPGK
chain 2: not shown
How did the EC50 [1] turn out when B1 was run?
The EC50 was 0.277 nM.

B2: 3C3 (antibody, V domains shown)
VH: QVQLQQWGAGLLKPSETLSLTCAVYGGSFSGYYWTWIRQPPGKGLEWIGKINHSGNTNYNPSLKSRVTISVDTSKNQFSLKLSSVTAADTAVYYCARLGAFDAFDIWGQGTMVTVSS
VL: DIQMTQSPSSLSASVGDRVTITCRASQGISSWLAWYQQKPEKAPKSLIYAASSLQSGVPSRFSGSGSGTDFTLTISSLQPEDFATYYCQQYNSYPYTFGQGTKLEIKR
B2 was tested. Which EC50 [2] did it give?
Its EC50 is 142 nM.

B3: anti-GITR.g2.g1.1f (antibody)
chain 1: QVQLVESGGGVVQPGRSLRLSCAASGFTFSSYGMHWVRQAPGKGLEWVAVIWYEGSNKYYADSVKGRFTISRDNSKNTLYLQMNSLRAEDTAVYYCARGGSMVRGDYYYGMDVWGQGTTVTVSSASTKGPSVFPLAPCSRSTSESTAALGCLVKDYFPEPVTVSWNSGALTSGVHTFPAVLQSSGLYSLSSVVTVPSSNFGTQTYTCNVDHKPSNTKVDKTVERKCCVECPPCPAPPVAGPSVFLFPPKPKDTLMISRTPEVTCVVVDVSHEDPEVKFNWYVDGVEVHNAKTKPREEQYNSTYRVVSVLTVLHQDWLNGKEYKCKVSNKALPSSIEKTISKAKGQPREPQVYTLPPSREEMTKNQVSLTCLVKGFYPSDIAVEWESNGQPENNYKTTPPVLDSDGSFFLYSKLTVDKSRWQQGNVFSCSVMHEALHNHYTQKSLSLSPG
chain 2: not shown
B3 was tested. Which EC50 [1] did it give?
The EC50 was 0.163 nM.
